The target in assay [1] is Recombinant human DPP4 (R&D systems, #9168-SE) (human).
For assay [2], the target named is recombinant human PREP (R&D systems, #4308-SE) (human).
Assay [3] deals with human fibroblast activation protein (FAP) on FAP-expressing human WI-38 fibroblasts (human). Put plainly: competition FACS, WI-38 cells, vs Cy5-labeled compound; D: pIC50 ≤6.0. To be noted: remark: other sources report otherwise.
Assay [4] concerns the target T1, Recombinant human FAP (R&D systems, #3715-SE) (human).
T1 sequence: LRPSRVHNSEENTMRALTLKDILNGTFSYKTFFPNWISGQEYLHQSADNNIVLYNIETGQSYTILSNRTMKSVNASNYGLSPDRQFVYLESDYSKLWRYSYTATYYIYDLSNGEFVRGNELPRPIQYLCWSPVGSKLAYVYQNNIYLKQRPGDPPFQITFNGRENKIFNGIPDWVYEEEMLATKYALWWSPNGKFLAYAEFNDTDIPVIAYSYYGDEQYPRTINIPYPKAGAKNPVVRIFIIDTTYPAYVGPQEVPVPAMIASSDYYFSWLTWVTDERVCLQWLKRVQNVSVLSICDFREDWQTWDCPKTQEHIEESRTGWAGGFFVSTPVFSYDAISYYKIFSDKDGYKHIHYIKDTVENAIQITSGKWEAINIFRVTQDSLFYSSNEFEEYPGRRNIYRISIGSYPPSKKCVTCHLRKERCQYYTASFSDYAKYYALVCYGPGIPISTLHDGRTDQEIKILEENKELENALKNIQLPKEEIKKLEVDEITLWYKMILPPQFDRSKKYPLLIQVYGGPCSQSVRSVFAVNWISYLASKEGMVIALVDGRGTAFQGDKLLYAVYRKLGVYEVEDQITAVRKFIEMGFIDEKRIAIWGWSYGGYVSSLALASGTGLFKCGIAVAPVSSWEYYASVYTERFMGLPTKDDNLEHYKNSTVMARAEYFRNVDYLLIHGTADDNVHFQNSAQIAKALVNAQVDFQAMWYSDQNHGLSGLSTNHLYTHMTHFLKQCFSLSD

From patent publication US20220315554A1, “COMPOUNDS COMPRISING A […] LIGAND AND USE THEREOF” (priority 2019, published 2022) come the findings set out here.

Numbered stars: 1 amine (or outer) side, 2 acyl side, 3 side chain; on linkers, the order of the positions; unused ones are H or OH. Bridge positions count the residues as written; N and C are the ends. * marks the point of attachment. mXylylene = c1cc(C[*:1])cc(C[*:2])c1; Hexanoyl = CCCCCC(=O)* Bounds are passed on as bounds.

Chain of recombinant human PREP (R&D systems, #4308-SE) (human) (chain, as listed by the source limits assumed): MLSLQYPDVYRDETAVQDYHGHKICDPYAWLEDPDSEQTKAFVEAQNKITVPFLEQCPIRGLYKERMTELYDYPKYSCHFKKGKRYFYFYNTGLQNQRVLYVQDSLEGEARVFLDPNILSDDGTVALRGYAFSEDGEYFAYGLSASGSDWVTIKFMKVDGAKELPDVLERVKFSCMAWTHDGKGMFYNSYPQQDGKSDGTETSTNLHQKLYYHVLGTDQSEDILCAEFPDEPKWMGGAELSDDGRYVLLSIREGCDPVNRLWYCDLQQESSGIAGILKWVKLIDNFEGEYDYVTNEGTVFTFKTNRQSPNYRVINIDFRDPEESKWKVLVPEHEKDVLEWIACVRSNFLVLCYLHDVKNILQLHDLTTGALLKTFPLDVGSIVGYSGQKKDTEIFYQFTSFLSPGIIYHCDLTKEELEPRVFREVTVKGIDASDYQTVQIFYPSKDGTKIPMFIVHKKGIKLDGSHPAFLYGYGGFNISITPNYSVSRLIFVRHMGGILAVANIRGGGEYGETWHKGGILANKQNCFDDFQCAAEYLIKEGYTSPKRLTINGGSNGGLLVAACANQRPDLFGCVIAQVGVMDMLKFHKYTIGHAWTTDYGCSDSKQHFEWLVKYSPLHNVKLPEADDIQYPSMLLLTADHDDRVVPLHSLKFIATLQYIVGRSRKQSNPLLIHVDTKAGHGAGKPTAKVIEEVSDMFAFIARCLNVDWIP

B1: Hex-[Cys(3MeBn)-Pro-Pro-Thr-Gln-Phe-Cys]-Asp-NH2 (3BP-3476) (peptide)
peptide: CPPTQFCD
modifications: N-terminal Hex; Cys1 and Cys7 linked as thioethers via 3MeBn; C-terminal NH2
As to B1, in assay [1], the pIC50 (DPP4) was less than 6 pIC50. Also, in assay [2], the pIC50 (PREP) is less than 6 pIC50.

B2: Hex-[Cys(tMeBn(DOTA-AET))-Pro-Pro-Thr-Gln-Phe-Cys]-Asp-NH2 (3BP-3426) (peptide)
peptide: CPPTQFCD
modifications: N-terminal Hex; Cys1 and Cys7 linked as thioethers via tMeBn(DOTA-AET); C-terminal NH2
As for B2, the pIC50 (DPP4) in assay [1] is less than 6 pIC50. In assay [2], the pIC50 (PREP) was less than 6 pIC50.

B3: Hex-[Cys(3MeBn)-Pro-Pro-Thr-Glu-Phe-Cys]-NH2 (3BP-3287) (peptide)
peptide: CPPTEFC
modifications: N-terminal Hex; Cys1 and Cys7 linked as thioethers via 3MeBn; C-terminal NH2
For the molecule B3, the pIC50 (DPP4) in assay [1] was less than 6 pIC50. For the same molecule, the pIC50 (PREP) in assay [2] is less than 6 pIC50.

B4: Hex-[Cys(3MeBn)-Pro-Pro-Thr-Glu-Ala-Cys]-NH2 (peptide)
peptide: Hexanoyl-CPPTEAC-NH2
modifications: linker 1-7 via mXylylene
SMILES: CCCCCC(=O)N[C@H]1CSCc2cccc(c2)CSC[C@@H](C(N)=O)NC(=O)[C@H](C)NC(=O)[C@H](CCC(=O)O)NC(=O)[C@H]([C@@H](C)O)NC(=O)[C@@H]2CCCN2C(=O)[C@@H]2CCCN2C1=O
The molecule B4 came in with a pIC50 Category (FACS) in assay [3] of less than 6 pIC50.

B5: Hex-[Cys(3MeBn)-Ala-Pro-Thr-Glu-Phe-Cys]-NH2 (peptide)
peptide: Hexanoyl-CAPTEFC-NH2
modifications: linker 1-7 via mXylylene
SMILES: CCCCCC(=O)N[C@H]1CSCc2cccc(c2)CSC[C@@H](C(N)=O)NC(=O)[C@H](Cc2ccccc2)NC(=O)[C@H](CCC(=O)O)NC(=O)[C@H]([C@@H](C)O)NC(=O)[C@@H]2CCCN2C(=O)[C@H](C)NC1=O
B5 had a pIC50 Category (FACS) in assay [3] of less than 6 pIC50.

B6: Hex-[Cys(3MeBn)-Pro-Pro-Thr-Glu(NH-Apr-DOTA')-Phe-Cys]-Asp-NH2 (peptide)
peptide: Hexanoyl-CPPTEFCD-NH2
modifications: linker 1-7 via mXylylene; not fully specified (residue 5); printed as Hex-[Cys(3MeBn)-Pro-Pro-Thr-Glu(NH-Apr-DOTA')-Phe-Cys]-Asp-NH2
B6: in assay [4], the pIC50 Category (Activity) was less than 6 pIC50. Moreover, the pIC50 Category (FACS) in assay [3] was less than 6 pIC50.
